For one assay, the target named is T1, thrombin (UniProt P00734 328-622).
T1 construct: also called factor IIa; IIa
Description: SPR (BIAcore 3000), Ir-CPI immobilized on CM5 chip, factor injected as analyte. On the procedure:
(§1) The interaction between Ir-CPI and coagulation or fibrinolytic factors was monitored using a BIAcore 3000 instrument (BIAcore AB, Sweden). Ir-CPI (15 μM) was immobilized on the surface of a CM5 sensor chip in 10 mM acetate buffer, pH 5.0, by the amine coupling procedure according to the manufacturer's instructions. 1500 resonance units (RU) of immobilized Ir-CPI were used for the assay. To subtract the non-specific component from the apparent binding response, a blank flow cell was prepared using the same immobilizing procedure without Ir-CPI. Binding analyses were carried out using HBS buffer (HEPES 10 mM, NaCl 150 mM, EDTA 3 mM; pH 7.4 with 0.005% surfactant P20) as running buffer at 25° C. 100 μl of each analyte (100 nM) was injected on the sensor chip at a flow rate of 70 μl/min Association was monitored during an 84 s injection of analyte. Dissociation was monitored for 3 min after return to the running buffer.
(§2) The ability of Ir-CPI to bind a (co)factor of coagulation or fibrinolysis was evaluated by surface plasmon resonance. […] Moreover, the kinetics of interaction between Ir-CPI and the four target factors (XIIa, XIa, plasmin and kallikrein) were measured after a new immobilization of Ir-CPI. […] Interaction kinetics were determined for each analyte, at 6 different concentrations (from 5 nM to 300 nM). The kinetic data obtained were individually processed with BIA evaluation software in order to determine the kinetics constants.

In the next assay the target is plasminogen (UniProt P00747 20-810). Described as above. How it is done:
as §1, §2

For a further assay, the target named is t-PA (UniProt P00750 36-562). The description is as above. On the procedure: as §1, §2
Assay [1] has as its target T2, high molecular weight kininogen (UniProt P01042 19-644).
T2 construct: also called HMWK
T2 sequence (looked up): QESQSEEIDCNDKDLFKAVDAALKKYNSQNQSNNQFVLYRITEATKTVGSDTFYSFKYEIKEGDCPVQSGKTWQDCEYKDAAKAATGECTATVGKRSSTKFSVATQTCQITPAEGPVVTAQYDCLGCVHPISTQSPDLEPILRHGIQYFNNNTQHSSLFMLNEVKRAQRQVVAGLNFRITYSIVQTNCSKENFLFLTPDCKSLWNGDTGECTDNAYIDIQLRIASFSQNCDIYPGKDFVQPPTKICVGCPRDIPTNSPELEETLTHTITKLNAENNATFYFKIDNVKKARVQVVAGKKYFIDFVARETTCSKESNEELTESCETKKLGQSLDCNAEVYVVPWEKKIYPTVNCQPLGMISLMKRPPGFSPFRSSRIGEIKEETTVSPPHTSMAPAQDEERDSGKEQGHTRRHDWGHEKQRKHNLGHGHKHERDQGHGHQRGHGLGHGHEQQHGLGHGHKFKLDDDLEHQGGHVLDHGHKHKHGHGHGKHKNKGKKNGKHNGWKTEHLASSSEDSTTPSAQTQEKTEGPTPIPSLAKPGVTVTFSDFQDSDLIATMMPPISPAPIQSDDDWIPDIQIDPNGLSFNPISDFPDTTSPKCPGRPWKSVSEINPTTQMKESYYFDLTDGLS
The description is as above. How it is done: as §1, §2

A further assay deals with T3, factor X (UniProt P00742 41-488).
T3 construct: also called fX
The assay is described as above. On the procedure: as §1, §2

Another assay addresses T4, factor IX (UniProt P00740 47-461).
T4 construct: also called fIX
The description is as above. On the procedure: as §1, §2

The next assay addresses T5, factor VIIa (UniProt P08709 61-466).
T5 construct: In the amidolytic and reconstituted assays it was used with tissue factor ('FT-FVIIa', 'tissue factor complex/factor VIIa'); In SPR it is printed only as 'fVIIa'; also called fVIIa; FVIIa
T5 sequence (looked up): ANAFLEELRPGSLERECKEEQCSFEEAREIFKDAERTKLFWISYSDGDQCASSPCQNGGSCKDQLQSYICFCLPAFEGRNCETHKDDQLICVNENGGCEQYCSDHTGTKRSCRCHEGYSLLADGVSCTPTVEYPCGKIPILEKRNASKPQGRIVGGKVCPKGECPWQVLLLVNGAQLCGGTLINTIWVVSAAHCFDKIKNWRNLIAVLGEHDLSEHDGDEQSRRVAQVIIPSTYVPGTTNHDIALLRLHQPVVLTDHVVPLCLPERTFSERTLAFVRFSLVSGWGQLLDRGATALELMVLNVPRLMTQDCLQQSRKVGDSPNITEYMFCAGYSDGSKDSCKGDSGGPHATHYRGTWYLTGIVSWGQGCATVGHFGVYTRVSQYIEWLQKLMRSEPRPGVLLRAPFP
The assay is described as above. How it is done:
as §1, §2

For another assay, the target named is plasma kallikrein (UniProt P03952 20-638). Put plainly: SPR kinetics, Ir-CPI immobilized (about 200 RU), analyte at 6 concentrations from 5 nM to 300 nM. How it is done: Interaction kinetics were determined, for each analyte, with 6 different concentrations (from 5 nM to 300 nM). Binding data were analyzed using BIA evaluation software to determine the kinetic constants.
The ability of Ir-CPI to bind a (co)factor of coagulation or fibrinolysis was evaluated by surface plasmon resonance. […] Moreover, the kinetics of interaction between Ir-CPI and the four target factors (XIIa, XIa, plasmin and kallikrein) were measured after a new immobilization of Ir-CPI. […] Interaction kinetics were determined for each analyte, at 6 different concentrations (from 5 nM to 300 nM). The kinetic data obtained were individually processed with BIA evaluation software in order to determine the kinetics constants. […] FIG. 9 represents sensorgrams for interactions between coagulation factors and immobilized Ir-CPI measured by surface plasmon resonance. Ir-CPI was immobilized onto the surface of a sensor chip CM5 at level of 1500 resonance units (RUs). Contact factors (100 nM final concentration) were injected at a flow rate of 70 μl/min in HBS buffer, and association was monitored. After return to buffer flow, dissociation was monitored during 84 s. The sensor chip surface was regenerated by a pulse injection of 25 mM NaOH after each experiment.
In general terms: SPR reads the build-up and loss of mass on a sensor chip optically.

The target of a further assay is factor XIa (UniProt P03951 19-625). Put plainly: cell-based or functional assay.
The target of the next assay is T6, factor XIIa (UniProt P00748 20-615, limits assumed).
T6 sequence (looked up): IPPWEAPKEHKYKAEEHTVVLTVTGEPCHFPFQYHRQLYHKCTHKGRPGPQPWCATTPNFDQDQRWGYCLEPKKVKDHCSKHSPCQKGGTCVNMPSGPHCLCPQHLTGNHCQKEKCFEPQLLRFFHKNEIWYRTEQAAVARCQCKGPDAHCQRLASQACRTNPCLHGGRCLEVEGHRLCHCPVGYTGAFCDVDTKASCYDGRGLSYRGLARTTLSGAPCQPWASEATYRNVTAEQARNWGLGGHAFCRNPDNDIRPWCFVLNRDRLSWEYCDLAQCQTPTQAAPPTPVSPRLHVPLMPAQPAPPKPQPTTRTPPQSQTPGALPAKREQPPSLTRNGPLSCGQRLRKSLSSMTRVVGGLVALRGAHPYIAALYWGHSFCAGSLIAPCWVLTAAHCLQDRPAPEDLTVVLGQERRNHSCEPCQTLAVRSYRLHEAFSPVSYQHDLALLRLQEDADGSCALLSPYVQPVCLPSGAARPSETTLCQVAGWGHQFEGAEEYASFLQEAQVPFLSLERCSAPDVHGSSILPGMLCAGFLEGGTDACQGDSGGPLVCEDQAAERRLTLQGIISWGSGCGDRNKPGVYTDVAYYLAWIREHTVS
Put plainly: cell-based or functional assay.

Chain of t-PA (P00750 36-562 limits assumed): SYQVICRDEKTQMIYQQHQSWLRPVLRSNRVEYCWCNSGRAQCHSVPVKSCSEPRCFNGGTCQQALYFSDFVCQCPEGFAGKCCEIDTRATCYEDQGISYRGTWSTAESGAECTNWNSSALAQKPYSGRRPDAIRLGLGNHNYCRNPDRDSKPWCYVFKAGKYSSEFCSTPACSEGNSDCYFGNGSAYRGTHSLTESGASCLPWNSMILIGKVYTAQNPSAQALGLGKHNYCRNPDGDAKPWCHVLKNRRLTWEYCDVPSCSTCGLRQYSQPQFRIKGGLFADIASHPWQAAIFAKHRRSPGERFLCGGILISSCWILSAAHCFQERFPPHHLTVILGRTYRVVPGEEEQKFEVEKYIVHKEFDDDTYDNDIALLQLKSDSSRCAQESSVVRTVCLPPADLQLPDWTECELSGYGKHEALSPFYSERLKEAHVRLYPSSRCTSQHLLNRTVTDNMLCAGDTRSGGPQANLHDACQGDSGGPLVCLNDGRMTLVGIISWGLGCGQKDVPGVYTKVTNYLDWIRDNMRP
Chain of plasma kallikrein (P03952 20-638 limits assumed): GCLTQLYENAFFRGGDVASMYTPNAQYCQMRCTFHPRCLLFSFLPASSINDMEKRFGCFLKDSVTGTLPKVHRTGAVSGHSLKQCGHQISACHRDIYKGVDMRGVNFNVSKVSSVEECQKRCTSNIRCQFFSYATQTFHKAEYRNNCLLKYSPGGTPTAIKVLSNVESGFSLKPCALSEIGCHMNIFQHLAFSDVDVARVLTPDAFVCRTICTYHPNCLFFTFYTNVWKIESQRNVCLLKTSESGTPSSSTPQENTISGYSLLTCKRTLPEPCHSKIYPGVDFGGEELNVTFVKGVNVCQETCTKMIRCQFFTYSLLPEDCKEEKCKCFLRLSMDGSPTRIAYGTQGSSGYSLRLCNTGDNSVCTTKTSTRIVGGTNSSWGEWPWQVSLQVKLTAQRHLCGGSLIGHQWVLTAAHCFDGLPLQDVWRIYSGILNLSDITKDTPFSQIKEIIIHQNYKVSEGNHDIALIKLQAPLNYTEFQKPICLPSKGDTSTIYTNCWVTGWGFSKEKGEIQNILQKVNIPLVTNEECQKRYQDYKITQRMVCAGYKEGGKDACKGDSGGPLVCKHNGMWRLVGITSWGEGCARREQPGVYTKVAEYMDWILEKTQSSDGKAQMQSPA
Chain of plasminogen (P00747 20-810 limits assumed): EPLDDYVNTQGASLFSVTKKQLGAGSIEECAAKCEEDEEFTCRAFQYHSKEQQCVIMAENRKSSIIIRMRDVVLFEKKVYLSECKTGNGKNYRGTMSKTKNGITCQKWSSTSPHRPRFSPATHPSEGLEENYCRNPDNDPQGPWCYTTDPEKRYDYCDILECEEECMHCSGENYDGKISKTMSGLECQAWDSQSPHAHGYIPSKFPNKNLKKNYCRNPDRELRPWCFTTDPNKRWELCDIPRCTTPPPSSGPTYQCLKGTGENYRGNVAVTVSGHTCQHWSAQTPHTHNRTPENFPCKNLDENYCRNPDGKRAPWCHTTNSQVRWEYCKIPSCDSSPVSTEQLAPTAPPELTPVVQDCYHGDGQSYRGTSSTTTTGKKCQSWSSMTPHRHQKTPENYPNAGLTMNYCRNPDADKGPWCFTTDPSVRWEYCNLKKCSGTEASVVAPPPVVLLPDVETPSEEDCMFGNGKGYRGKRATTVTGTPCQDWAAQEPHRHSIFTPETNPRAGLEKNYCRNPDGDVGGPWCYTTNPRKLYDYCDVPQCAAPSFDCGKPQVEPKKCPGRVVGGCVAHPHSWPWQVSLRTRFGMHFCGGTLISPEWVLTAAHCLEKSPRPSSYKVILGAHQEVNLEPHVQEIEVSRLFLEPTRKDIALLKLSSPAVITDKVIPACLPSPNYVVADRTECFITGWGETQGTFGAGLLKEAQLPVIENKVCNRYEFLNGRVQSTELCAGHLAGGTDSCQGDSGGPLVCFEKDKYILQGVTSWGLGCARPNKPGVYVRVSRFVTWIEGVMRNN

B1: Ir-CPI (Ixodes ricinus Contact Phase Inhibitor), recombinant (other)
chain: ANHKGRGRPAKCKLPPDDGPCRARIPSYYFDRKTKTCKEFMYGGCEGNENNFENITTCQEECRAKKV
notes: Kunitz-type protein; Made in E. coli as a GST fusion (pGEX-6P-1), released with PreScission protease and gel filtered; In the SPR assay it was amine-coupled to a CM5 chip; also called ID; NO; 7 without its peptide signal
Broadly, the Kd is the free concentration of one partner at which half of the binding sites on the other are occupied at equilibrium, for simple one-to-one binding. Regarding B1, the binding result (with thrombin; with plasminogen; in the assay with t-PA; in [1]; with factor X; with factor IX) was “no binding (tested: 100 nM)” in each case. Also, the binding result in the assay with factor VIIa is listed as “no binding (tested: 100 nM)”. For the same molecule, in the assay with plasma kallikrein, binding was put at a Kd of 200 nM. Besides, in the assay with factor XIa, the “EC50 (µg/mL) of inhibition of FXI coagulation activity, aPTT-based assay in human plasma with FXI deficient plasma” value came out at 1.41 µg/mL. Also, the “EC50 (µg/mL) of inhibition of FXII coagulation activity, aPTT-based assay in human plasma with FXII deficient plasma” value with factor XIIa amounted to 1.38 µg/mL.
